Experimental data taken from article PMC2744139.

Target: Cdc13 full-length (FL) (Saccharomyces cerevisiae, UniProt P32797 1-924)
Assay: fluorescence anisotropy

Chain of Cdc13 full-length (FL) (P32797 whole entry): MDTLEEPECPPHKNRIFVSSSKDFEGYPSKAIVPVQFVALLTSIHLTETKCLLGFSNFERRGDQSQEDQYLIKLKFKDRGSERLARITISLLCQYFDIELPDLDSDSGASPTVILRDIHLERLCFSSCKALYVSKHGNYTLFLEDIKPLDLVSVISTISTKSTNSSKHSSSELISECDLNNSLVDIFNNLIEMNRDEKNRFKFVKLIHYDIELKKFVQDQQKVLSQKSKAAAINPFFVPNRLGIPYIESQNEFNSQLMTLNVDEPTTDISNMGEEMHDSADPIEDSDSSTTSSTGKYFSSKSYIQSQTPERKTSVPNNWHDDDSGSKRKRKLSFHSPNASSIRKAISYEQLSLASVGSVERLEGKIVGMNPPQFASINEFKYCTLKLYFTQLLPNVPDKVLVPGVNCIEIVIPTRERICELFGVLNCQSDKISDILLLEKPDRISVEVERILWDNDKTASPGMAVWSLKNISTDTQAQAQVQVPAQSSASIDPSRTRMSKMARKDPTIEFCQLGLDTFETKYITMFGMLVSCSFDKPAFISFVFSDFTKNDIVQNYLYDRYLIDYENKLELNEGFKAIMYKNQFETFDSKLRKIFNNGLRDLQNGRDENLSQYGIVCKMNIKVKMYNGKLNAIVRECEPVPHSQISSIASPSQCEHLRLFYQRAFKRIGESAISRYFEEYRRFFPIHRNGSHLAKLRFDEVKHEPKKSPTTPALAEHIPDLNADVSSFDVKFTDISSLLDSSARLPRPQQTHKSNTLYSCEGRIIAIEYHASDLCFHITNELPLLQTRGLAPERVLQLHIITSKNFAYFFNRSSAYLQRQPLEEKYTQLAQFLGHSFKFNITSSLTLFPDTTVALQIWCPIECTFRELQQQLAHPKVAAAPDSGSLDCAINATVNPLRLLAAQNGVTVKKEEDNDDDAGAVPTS

B1: 7-base 3'-overhang telomeric DNA (mixed)
DNA: GTGGGTGTGTGTGTGGGGTGGTGTGTGTGG
?: CACCACCCCACACACACACCCAC
B1: no binding.
